According to the nanobody polyreactivity screen of Harvey et al. (2022):

Test: yeast display, Sf9 membrane polyspecificity reagent, FACS + sequencing; frameworks hold sequencing errors
Outline: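 Galactose induction of a Saccharomyces cerevisiae BJ5465 synthetic nanobody display library ran 36–48 hours. The cells were then stained for 1 hour at 4 °C with 10% biotinylated, detergent-solubilized Sf9 membrane reagent, pulled down on streptavidin microbeads and FACS-sorted into low and high (top ~1%) gates on expression and reagent-binding fluorescence. Labels for polyreactivity follow the gate of origin.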
In the case of “QVQLEESGGGLVQAGGSLRLSCAASGSTFRYYAMGWYRQAPGKERELVAAISRSGGRTYYADSVKGRFTISRDNAKNTVYLQMNSLKPEDTAVYYCATRGDGSSWGDYDYWGQGTQVTVSS”, the “polyreactivity (PSR sort gate)” value is reported as “high polyreactivity”. With “QLQLQESGGGLVQAGVCLSCTASGTIFGQGDMGWYRQAPGKERELVATINDGASTYYADSVKGRFTISRDKAKNTVYLQKNSLKPDDNAVYYCAVFTDITTYFGYWGQGTQVTVSS” the “polyreactivity (PSR sort gate)” value was “low polyreactivity”. With “QVQLVESGGGLVQAGGSLRLSCAASGRTFGGNAMGWYRQAPGKERELVAAISARAGSTYYADSVKGRFTISRDNAKNTVYLQMNSLKPEDTAVYYCAARRYAYTGGYWGQGTQVTVSS” the “polyreactivity (PSR sort gate)” value was “high polyreactivity”. For “QVQLVESGGGLVQAGGSLRLSCAASGRIFIYNAMGWYRQAPGKETELVAAISSGGDTYYADSVKGRFTISRDNAKNTVYLQMNSLKPEDTAVYYCAARVYRYRGYDSWGQGTQVTVSS”, the “polyreactivity (PSR sort gate)” value was “high polyreactivity”. For “QVQLVESGGGLVQAGGSLRLSCAASGSIFDDYAMGWYRQAPGKERELVAANSGSGDITYYADSVKGRFTISRDNAKNTFYLQMNSLKPEDTAVYYCAAESVYTFYWGQGTQVTVSS”, the “polyreactivity (PSR sort gate)” value was “high polyreactivity”. With “QVQHLESGGGVVQAGGSIRLSCAASVIIFRAYAMGWYRQAPGKERELVAAITSRGGSTYYADSVKGRFTFSRDNAKNTVYLQMNSLKQEDTAVYYCNAAALADYDYWGQGTQVTLSS” the “polyreactivity (PSR sort gate)” value was “low polyreactivity”. In the case of “QVQLVESGGGLVQAGGSLRLSCPASGSTFSPNAIGWSRQAPGKERELLDAINYSSGSTYYADSVKGRFTISRDNAKNSVYLQMNSLKPEDTAVYYCAVRSYWSSLWTLGDYWGQGTQVTVSS”, the “polyreactivity (PSR sort gate)” value is reported as “low polyreactivity”. For “QVQLVESGGGLVQAGGSLRLSCAASGSIFYVYAMGGYRQAPGKERELVAAISRRGARTYYADSVKGRFTISRDNAKNTVYLQMNSLKPEDTAVYYCNADQYYTVGYSAEYEYWGQGTQVTVSS”, the “polyreactivity (PSR sort gate)” value was “low polyreactivity”. In the case of “QVQLVESGGGLVQAVGSLRLICDASGRIFYGYAMGWYRQAPGTERELVAANTYIGGTYYADSVKGRFTISRDNAKNTVDFLMNSVKPEDTSVYYWATEPFYNYGYFTYPYWYDYWGQGSQVTVSS”, the “polyreactivity (PSR sort gate)” value is reported as “low polyreactivity”. With “QVQLVESGGGLVQAGGSLRLSCAASGRTFNRNAMGWYRQAPAKERELVAAITSSGGRTYYADSVKGRFTISRDNAKNTVYLQMNSLKPEDTAVYYCNVGPYYPVYLGYLLWYDYWGQGTQVTVSS” the “polyreactivity (PSR sort gate)” value was “high polyreactivity”. In the case of “QVQLLESGGGLVQAGGSLRLSCAASGLIFAGNAMGWYRQAPGKERELVAAISSSGGRTYYADSVKGRFTFSRDNAKNTVYLQMYSLKPEDTAVYYCAAVRTGYYRQYDYWGQGTQVTVSS”, the “polyreactivity (PSR sort gate)” value is reported as “high polyreactivity”. In the case of “QVQLVESGGGLVQAGGSLRLSCAASGSIFTYYTMGWYRQAPGKERELVAAITVSGGRTFYADSVKGRFTISRDNAKNTVYLQMNSLKPEDTAVYYCAVKQVTLSPQYDYWGQGTQVTVSS”, the “polyreactivity (PSR sort gate)” value is reported as “low polyreactivity”. In the case of “QVQHVESGGGLVQAGGSLRLSCAASGRTFTPNAMGWYRPPPGKVREMVAAIDWRGGRTYYADSVKGRFTISRDNAKNTVYLQKNSLKPEDTAVYYCAARVDGYQYKSAGYSYGVFYWGQGTQVTVSS”, the “polyreactivity (PSR sort gate)” value is reported as “low polyreactivity”. With “QVQLVESGGGLVQAGGSLRLSCAASGTTFTDNAMGWYRQAPGKERELVAAITSGSSTNYADSVKGRFTISRDNAKNTVSLQMNSLKPEDTAVYYCATGQVPQYSTGDYWGQGTQVTVSS” the “polyreactivity (PSR sort gate)” value was “low polyreactivity”. With “QVQLVESGGGLVQAGGRLRLSCAASGRIISHYAMGWYRQAPGKEWELVAAISRSGGSTYYADSVKGRFTLSRDNAKNTVYLQMNSLKPEDTAVYYCAARSWPNIRCHDYWGQGTQVTVSS” the “polyreactivity (PSR sort gate)” value was “high polyreactivity”. For “QVQLVESGGGLVQAGGSLRLSCAASGSTFNGYAMGWYRQAPGKERELVAAISKRGGGTYYADSVKGRFTISRDNAKNTVYLQMNSLKPEDTAVYYCAAVSGPFVQTSGNGEYDYWGQGTQVTVSS”, the “polyreactivity (PSR sort gate)” value was “low polyreactivity”. In the case of “QVQLVESGGGLVQAGGSLRLSCAASGSTFTIYAMGWYRQAPGKERELVAAISSGGGDTDYADSVKGRFTISRDNAKNTVYLQMNSLKPEDTAGYYCNAEGTSPRTGYDYCGQGTQVTVSS”, the “polyreactivity (PSR sort gate)” value is reported as “low polyreactivity”. With “QVQLVESGGGLVQAGGSLRLSCAASGRTFKPYAMGWYRQAPGKERELVAAISSGVSTHYADSVKGRFTISRDNAKNTVYLQMNSLKPEDTAVYYCAADYWVNYWFDYWGQGTQVTVSS” the “polyreactivity (PSR sort gate)” value was “low polyreactivity”. With “QVQLVESGGGLVQAGGSLRLSCAASGFIFQKYVMGWSRQAPGKERELVAVISRSGDSTRYADSVKGRFTISRDNAKNTVYLQMNSLKPEDTAVFYCAAASAKFTGTGYYFWGQGTQVTVSS” the “polyreactivity (PSR sort gate)” value was “high polyreactivity”. With “QVQLQESGGGLVQAGGSLGCAASGNISTRSEMGWYRQAPGKDREFVATINSGGITNYADSVNGRFTISRDNAKKTVYLRMNSLKTEDTAVYYRAVFGYLSDPNDYCGQGTQVTVSS” the “polyreactivity (PSR sort gate)” value was “low polyreactivity”. For “QVQLRESGGGLVQAGGSLSLSCAASGTIFYSRYMGWYRQAPGKEREFVASNSSGGNTNYADSVKGRFTISRDNAKNTVYLQMNSLKPEVSAVYYCEVNTGLITTFPYWGQGTQVTVSS”, the “polyreactivity (PSR sort gate)” value was “high polyreactivity”. For “QVQLVESGGGLFQAGGSLRLSCAASGIIFYHYAMGWYRQAPGKERELVAAITRSGSRTYYADSVKGRFTISRDNAKNTVYLQLNSLKPEDTAVYYCAYRRRWYGIRNYYWGQGTQVTVSS”, the “polyreactivity (PSR sort gate)” value was “high polyreactivity”. For “QVQLVESGGGLVQAGGSLRLSCAASGSILAGYAMGWYRQAPGKERELVAAISDSGGNTYYADSVKGRFTISRDTAKNTVYLQMNSLKPEDTAVYYCAADLGYGPLRELEYWGQGTQVNVSS”, the “polyreactivity (PSR sort gate)” value was “low polyreactivity”. For “QVQLVESGGGLVQAGGSLRLSCAASGRIFYYYGMGWYRQAPGKEREFVAAISLGGARTYYADSVKGRFTISRDNAKNTVYLQMNSLKPEDTAVYDCYARGIGRSTKWSSRDYWGQGTQVTVSS”, the “polyreactivity (PSR sort gate)” value was “high polyreactivity”. For “QVQLVESGGGLVQAGGSLRLSCAASGFTFTSYAMGWYRQAPGKERELVAAITVTGGRTYYADSVKGRFTISRDNAKNTVYLQMNSLKPEDTAVYYCATVFSLSSPYWKHYYWGQGTQVTVSS”, the “polyreactivity (PSR sort gate)” value was “high polyreactivity”. For “QVQLVESGGGLVQAGGSLRLRCAASGSTFDVYAMGWYRQAPGKERELVASISITDGSTYYADSVKGRFTISRDNAKNTVYLQMNSLIPEVTAVYYCAAEYHTLSKYSGYATHVYWGQGTQVTVSS”, the “polyreactivity (PSR sort gate)” value was “low polyreactivity”. For “QVQLVESGGGLVQAGGSLRLSCAASGRTFYRNVMGWYRQAPGKERELVAAISSRGGSTYYADSVKGRFTISRDNAKNTVYLQMNSLKPEDTAVYYCAAPRASGYYWGQGTQVTVSS”, the “polyreactivity (PSR sort gate)” value was “high polyreactivity”. In the case of “QVQLVESGGGLVQAGGSLRLSCAASGRIFWYNAMGWYRQAPGKERELVAGITSGGRTNYADSVKGRFTISRDNAKNTVYLQMNSLKPEDTAVYYCAADVPPGEVVTNDYWGQGTQVTVSS”, the “polyreactivity (PSR sort gate)” value is reported as “low polyreactivity”. With “QVQLVESGGGLVQAGGSLRLSCAASGFIFTDYAMGWYRQAPGKERELVAAISSGGRTYYADSVKGRFTISRDNAKNTVYLQMNSLKPEDTAVYYCARGGRAEGWGQGTQVTVSS” the “polyreactivity (PSR sort gate)” value was “high polyreactivity”. With “QVQLVESGGGLVQAGGSLRLSCAASGFIFSNNAMGWYRQAPGKERELVAAISGRGGSTYYADSVKGRFTISRDNAKNTVYLQMNSLKPEDTAVYYCNALYTYSYSRFDYWGEGTQVTVSS” the “polyreactivity (PSR sort gate)” value was “low polyreactivity”. With “QVQLVESGGGLVQAGGSLRLSCAASGSTFLRYAMGWYRQAPGKERELVADITTSGGITYYADSVKGRFTISRDNAKNTVYLQMNSLKPEDTAVYYCAARYLPYRRIKYDYWGQGTQVTVSS” the “polyreactivity (PSR sort gate)” value was “low polyreactivity”. In the case of “QVQLVESGGGLVQAGGSLRLSCAASGSTFGFYTMGWYRQAPGKERELVAAISRGGGRTYYADSVKGRFTISRDNAKNTVYLQMNSLKPEDTAVYYCAARSTQGRFEYWGQGTQVTVSS”, the “polyreactivity (PSR sort gate)” value is reported as “high polyreactivity”. For “QVQLVQSAGGLVQAGGSLRLSCAASGFTFVKYAMGWYRQAPGKERELLAVISRRGGSTYYADSVKGRFTISRDNAKNTVYLHMNSLKPEDTAVYYCAAVYYLYSAWRYDYWGQGTQVTVSS”, the “polyreactivity (PSR sort gate)” value was “high polyreactivity”. With “QFQLVESGGGLVQAGGRLRLSCAASGSTLRRYAMGWYRQAPGKERELVAAITYRSGSTYYADSVKGRFTISRDNAKNTVYLEMNSLKPVDTAVYYCAKVGYVSKYWFAGDYWGQGTQVTVSS” the “polyreactivity (PSR sort gate)” value was “high polyreactivity”. With “QVQLVETAGGLVQAGGSLRLSSAASGRTFTLNAMGWYRQAPGKERELVATISRRGGSTYYADSVKGRFTISRDNAKNTVYLQMNSLNPEDTAVYYCNAGSSVLKYDYWGQGTEVTVSS” the “polyreactivity (PSR sort gate)” value was “low polyreactivity”. For “QVQLVESGAGLVQAGGILRLSCAASGSTFIYNAMGWYIQAPGKERELVAAISARTGNTYYADSVKGRFTISRDNAKNTVYLQMNSLKPEDTAVYYCARRGFRRGGGPSRYYWYDYWGQGTQVTVSS”, the “polyreactivity (PSR sort gate)” value was “high polyreactivity”. For “QVQLVESGGGLVQAGGSLRLSCAASGSTFNSYARGWYRQAPGTERELVAAITSSVGSTYYADSVKGRFTISRDNAKNTVYLQMNSLKPEDTAVYYCDRDYFNREAFDYWGQGTQVTVSS”, the “polyreactivity (PSR sort gate)” value was “low polyreactivity”. With “QVQLVESGRGLVQAGGSLRLSCAASGSTFNSYAMGWYRQAPGKERELVAAIRWSGSSTYYADSVKGRFTISRDNAKNTVYLQMNSLKAEDTAVYYCSKGYSYGRPWDIYYYWGQGTQVTVSS” the “polyreactivity (PSR sort gate)” value was “low polyreactivity”. In the case of “QVQLVESGGGLVQAGGSLRLSCAASGLTFADYAMGWYRQAPGKERELVAAISSSDTSTYYADSVKGRFTISRDNAKNTVYLQMNSLKPEDTAVYYCAADEGYVWPYYGWGFGKYDYWGQGTQVTVSS”, the “polyreactivity (PSR sort gate)” value is reported as “low polyreactivity”. With “QVQLVESAAGLVQAGGSLRLSCAASGSNFYGNAMGWYRQAPGKERELVAAIRWRGGRTYYADSVKGRFTISRDNAKNTVYLQMNSMKPEDTAVYYCNALPGVSHTQYDRVGYWGQGTQVTVSS” the “polyreactivity (PSR sort gate)” value was “high polyreactivity”. With “QVQLVESGGGLVQAGGSLRLSCAASRRIFYGYAMGWYRQAPGKERELVAAISLRTGSTFYADSVKGRFTISRDNAMNTVYLQMNSLKPEDTAVYYCAKEESYRPYIYVMDYWGQGTQVTVSS” the “polyreactivity (PSR sort gate)” value was “low polyreactivity”. With “QVKLVESGGRLVQAGGSLRLSCAASGIIFFSYAMRSYRQAPGKERELVAAISGTGGNTYYADSVKGRFTISRDNAKNTVYFQMNSLKPEDTAVYYCAADQEWYYYFVSFAYYILDYWGQGTEVTVSS” the “polyreactivity (PSR sort gate)” value was “high polyreactivity”. With “QVQLVESGGGLVQAGGSLRLSCAASGIIFYRYAMGWYRQAPGKERELVAAISASGDSTYYADSVKGRFTISRDNAKNTVYLQMNSLKPEDTAVYYCAADYGYRYDYWGQGTQVTVSS” the “polyreactivity (PSR sort gate)” value was “low polyreactivity”.
